Data: article PMC4422724

Experiments:
[1] = target: G146V mutant Dictyostelium actin (Dictyostelium); test: co-sedimentation; critical concentration by pelleting assay: 0.5-3.0 μM actin polymerized in F-buffer (10 mM HEPES pH 7.4, 2 mM MgCl2, 100 mM KCl, 0.5 mM ATP, 0.5 mM DTT) for 3 hr at 21°C, ultracentrifuged, protein in pellets determined; monomer to filament
[2] = target: G146V mutant Dictyostelium actin (Dictyostelium); test: pyrene fluorescence depolymerization assay; 2 μM Mg-actin (20% pyrene-labeled) polymerized overnight at 22°C with 100 mM KCl, 2 mM MgCl2, 0.5 mM ATP; depolymerization induced with 30 μM latrunculin A; double-exponential fit; filament to monomers
[3] = target: G146V mutant Dictyostelium actin (Dictyostelium); test: pyrene fluorescence depolymerization assay; 2 μM Mg-actin (20% pyrene-labeled) polymerized for 12 min at 22°C with 100 mM KCl, 2 mM MgCl2, 0.5 mM ATP; depolymerization induced with 30 μM latrunculin A; double-exponential fit; filament to monomers

G146V mutant Dictyostelium actin (natural protein)
critical concentration [1]: 0.51 µM | τf (depolymerization, fast-depolymerization population) [2]: 27.4 min | τs (depolymerization, slow-depolymerization population) [2]: 98 min | τf (depolymerization, fast-depolymerization population) [3]: 20.1 min | τs (depolymerization, slow-depolymerization population) [3]: 169 min
